Reference: the supplement of paper PMC12764529
± gives the half width of the 95% confidence interval.

What was measured:
[1] = folding stability dG unfold from chymotrypsin proteolysis; higher = more stable
In short: (§1)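 Bayesian fitting of sequencing counts gave K50 for each design. Unfolding free energy followed by setting this against a sequence-predicted unfolded-state K50 and a shared folded-state K50, either per protease or with trypsin and chymotrypsin combined. The designs, under 80 residues and lacking cysteine, were digested in a PA-tagged cDNA display format at 11 threefold-diluted protease concentrations and without protease, and only those with AlphaFold2 dimer inter-PAE above 15 were kept.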

[2] = folding stability dG unfold from trypsin proteolysis; higher = more stable
In short: as §1

[3] = folding stability dG unfold (combined trypsin and chymotrypsin); higher = more stable
In short: as §1

Sequence | folding stability dG unfold [1] [kcal/mol] | folding stability dG unfold [2] [kcal/mol] | folding stability dG unfold [3] [kcal/mol]
SAGGNIKVRREPRPNGQYRVKITIPDPDGKPIEIEYRMPPGMDSPEQAQKEAIEVVKEFAKKHNIKISAGGS [r8_464_TrROS] | 0.733 ± 0.17 | 0.423 ± 0.17 | 0.605 ± 0.21
SAGGNKGKTIQINFMIDPEDPEMMIEKISKWLQAKGFKIESIEPRPVGNRWMYSATFRVPNGREITIWSAGG [r13_421_TrROS] | 1.61 ± 0.19 | 1.76 ± 0.039 | 1.77 ± 0.17
SAGGNLDKEFVRDIIENFGFTRIEVEEHPNRKVVTFRFENMDVVIRPDGQIEIENPGGEPVFQIEVPSAGGS [r8_147_TrROS] | 1.63 ± 0.11 | 1.31 ± 0.031 | 1.53 ± 0.21
SAGGNNIYVHIQFKPKEQKMERTPDNGKWDMEYKWEIDITIYYPKGMSPEQAERLVNELREIFPGIKSAGGS [r8_306_TrROS] | 2.54 ± 0.047 | 1.12 ± 0.072 | 1.99 ± 0.12
SAGGNPSASPVVTETELPDGSRVTTTTYPSGTTTRTVTDLVTGKKTLVTTTTTPGTGATTTTTTPVPPSAGG [r13_822_JUSTAS] | 1.51 ± 0.022 | 0.151 ± 0.019 | 1.08 ± 0.03
SAGGNSMTILFIFPENGWIIRITIKFPDGNGKIDDIDIEREPVPNGQVKYTIRMPDGMEISVEIIPLDSAGG [r13_515_TrROS] | 5.57 ± 0.15 | 3.99 ± 0.1 | 5.52 ± 0.33
SAGGNWIWRIKFPGRSIHFNWEQGNIEIWPPDGEEKTIPLPPGEPLEEFADEFAEKNGFDKVEIEPVPSAGG [r13_852_TrROS] | 1.94 ± 0.24 | 2.08 ± 0.11 | 1.95 ± 0.21
SAGGNWRIVEIPIKFPPGQDLTTIAKEIAKELLPPGEDVSINVEQRPNYMRIYIFYPEDGKPLWEIEISAGG [r13_724_TrROS] | 2.81 ± 0.048 | 1.95 ± 0.054 | 2.58 ± 0.075
SAGGNWTIEVEIEENPDGPYRITIRYRAPNGEEHKVTMWFDPDNGTFPIKLPGPLPPDQIEDIEIWPSAGGS [r16_95_TrROS] | 5.04 ± 0.24 | 3.41 ± 0.36 | 4.91 ± 0.19
SAGGPDIKIKWKIEVNPDNGMIWLTMEIEVPNPNGDFYKVRADIYIPIVNPDDGKFPIFIMLEVEPVPSAGG [r13_715_TrROS] | 4.74 ± 0.25 | 3.36 ± 0.3 | 4.76 ± 0.2
SAGGPDWKTVEVEIQVKDPEDRPEAIEEAEEWAQELAENNPGYKIKGVDVEIWPHNGWYQIRIPITVESAGG [r13_305_TrROS] | 1.01 ± 0.21 | 0.733 ± 0.1 | 0.79 ± 0.19
SAGGPDWQTIRITFWFDSPEDAEEEVRNIARTMGLPPEGIKVEITDFEPREVNGKNYYMVEAEITIPSAGGS [r16_240_TrROS] | 4.274 ± 0.035 | 2.95 ± 0.044 | 3.93 ± 0.062
SAGGPEELELTLSIDYPDLTPEQAAEEARRLLEGLGFEVKEIPVTVEPGPGKVTVRARVTVLPPEERSAGGS [r16_287_TrMRF] | 1.21 ± 0.05 | 0.859 ± 0.12 | 1.06 ± 0.17
SAGGPFDDFEPLGTIPFKVNGMEIEIQIWRMKNPGHYMVDIRNPGFGIPVMYWVPPGDIEEILDLIRSAGGS [r8_469_TrROS] | 3.1 ± 0.059 | 2.22 ± 0.078 | 2.7 ± 0.14
SAGGPFRVRISDEVIKELKKQGLKPGKKSVKITMQYPNGWVFRGTIKIPPANPKIPLKAEPVERLDDSAGGS [r16_497_TrROS] | 0.386 ± 0.17 | 0.429 ± 0.074 | 0.482 ± 0.11
SAGGPGWVTVEFWIPIEPDPNQTRDDVKEKAEEIVHEMAEYHPQFGITNVKVDVDPEEGWVKVSIVWPSAGG [r13_1011_TrROS] | 1.58 ± 0.15 | 1.47 ± 0.16 | 1.49 ± 0.24
SAGGPGYNINIDVKIYPDPNDNHFVIEVKITIMPMEPDPDDGGWKQRSRTVPQEILLPPGESAEDIFSAGGS [r8_323_TrROS] | 1.86 ± 0.1 | 3.19 ± 0.17 | 2.62 ± 0.13
SAGGPITITYDEETGVLTITITVPSLEEAEALIKALLPPGAEATRITVERNEDGSVTVTVEIRLPKGLSAGG [r13_338_TrROS_Hall] | 1.49 ± 0.024 | 2.99 ± 0.08 | 2.31 ± 0.062

Sequence | folding stability dG unfold [1] [kcal/mol] | folding stability dG unfold [2] [kcal/mol] | folding stability dG unfold [3] [kcal/mol]
SAGGPKIKIEAFPDGTVKITIELPDGVTIVIELKFDPETGTVHAKITLLPKDKPVTFEFTFKIPPDASAGGS [r16_230_TrMRF] | 4.34 ± 0.11 | 3.34 ± 0.35 | 4.29 ± 0.41
SAGGPKKRKWVTFTIDIYIPTPPGQSIEDEARKLAENLGIEITDVEVEPHPNGMVKIDVTVTIWIPYSAGGS [r8_292_TrROS] | 4.37 ± 0.097 | 2.84 ± 0.062 | 3.91 ± 0.13
SAGGPKLFVEEDPVEDGVVVVVETNADPVALLKALEKLFGRPVKDVRFERLPDGRLIAVARIPKDALSAGGS [r16_605_TrMRF] | 2.676 ± 0.016 | 2.05 ± 0.043 | 2.47 ± 0.045
SAGGPKPILILPKNGKTETIPVPESMTLEEIIEIVKKAAEKYGFEKISYDPEKKVVTVYLKGKVIVTGSAGG [r13_572_TrMRF] | 2.625 ± 0.017 | 1.25 ± 0.015 | 2.27 ± 0.064
SAGGPKTIMAMIPRDSPELRKALKWLEKAPPGEEVELKLPGKPIRITNIQPVDDWWMFSVKIPPGLKSAGGS [r16_404_TrROS] | 0.462 ± 0.31 | 1.52 ± 0.16 | 0.885 ± 0.19
SAGGPKVEIVDITVTEEEVNGKKKKTVTVKVKLENGETLTITMSEEELKKLGLSVEEIAKKLAKKLKSAGGS [r16_625_TrROS_Hall] | 2.38 ± 0.044 | 1.54 ± 0.035 | 2.09 ± 0.15
SAGGPKVIVTDPNGVKHEFENLSIPELLSSLPKNGTPILKIEIPLFNPELGGEEPLELEFIFPPELFSAGGS [r16_806_TrMRF] | -0.417 ± 0.19 | 0.321 ± 0.017 | 0.107 ± 0.083
SAGGPKVYLTDIVTTLPDGTVVMIGEIELPDGTPLIAITTIYKDGTVKVFIYDPNGKLIAEIEIKPKPSAGG [r13_903_TrMRF] | 3.09 ± 0.032 | 2.15 ± 0.085 | 2.78 ± 0.064
SAGGPLSEEELEALRKALEAARAAGAETVTLTATLTVTRTVTLPDGSTRTETRTLTLTLTVTLPPEESAGGS [r8_203_TrROS_Hall] | 4.73 ± 0.079 | 3.74 ± 0.1 | 4.45 ± 0.12
SAGGPLVVEAKVEGDTVTIRLPNGEEFTAHPDATLFLPNGERVFFEPVSDDVVIATVVPLPEDAEFPSAGGS [r16_277_TrMRF] | -0.0303 ± 0.13 | 0.359 ± 0.034 | 0.212 ± 0.085
SAGGPMPPGQKRTVTIDLEYNPENGGYRVRAYSPGGKPIEEFPFPRDNLEEFAEEFANKGVDYVEIEPSAGG [r13_765_TrROS] | 0.528 ± 0.18 | -0.217 ± 0.19 | 0.325 ± 0.16
SAGGPNFIVKIRIPMRKYERENDPGGKPKWEPVEPQRVEITIIFKGPPEQAKQIREELENHGLEVEPISAGG [r13_452_TrROS] | 2.44 ± 0.098 | 1.65 ± 0.077 | 2.05 ± 0.18
SAGGPNIELEFETYRDPDGMLVIKFHIRIKFGNKPVYIFVEGVIPPDGEAQIEDAYIFDADNGEWIPISAGG [r13_932_TrROS] | 4.6 ± 0.15 | 2.9 ± 0.25 | 4.26 ± 0.29
SAGGPPNGMVPIKVPIKIRFPNGHEFKIDEAYVMPNGMVMIEMTHTDPDDKKEKFPFMIPPDNLEIVSAGGS [r16_498_TrROS] | 1.59 ± 0.096 | 2.41 ± 0.15 | 1.86 ± 0.19
SAGGPPNYRIKIEYYPPNGMITVELPFDSPDELLDEIRELPGLPVEPDNDGTIIIMFPNHMIKIDIWKSAGG [r13_143_TrROS] | 2.72 ± 0.056 | 2.18 ± 0.067 | 2.51 ± 0.11
SAGGPPPKWVKIDIFIFIYNPDNGRPIFIRITSIEIRLDENNELDVEIEFEVFDPNGKPVKYTMTFKSAGGS [r16_200_TrROS] | 4.8 ± 0.11 | 3.81 ± 0.12 | 4.45 ± 0.24
SAGGPSHPLGPVALTLDPAASTLTVTLGDEVLTLPVPPGVTATATSYPDSVTVTLTFPDGTVVTVTLPLSAG [r5_21_JUSTAS] | 3.18 ± 0.034 | 2.18 ± 0.063 | 2.89 ± 0.056
SAGGPTAPAGGPLLAPVPVVVPVPVTLTFPNLTPEQAEALAEYFRSLGAEVSYDSATGTLTVRDYRTSAGGS [r16_765_TrMRF] | 3.894 ± 0.014 | 2.28 ± 0.061 | 3.587 ± 0.033
